From the supplement of paper PMC7877785
± gives the uncertainty stated by the source.

Assay: self-splicing fitness, log relative to wild type (ln ratio); higher = more splicing; Tetrahymena group I intron in knt gene, E. coli kanamycin selection, DiMSum; sequences stand for … in CUCUCU…GGAGGGAAAAGUUAUCAGGCAUGCACCUGGUAGCUAGUCUUUAAACCAAUAGAUUGCAUCGGUUUAAAAGGCAAGACCGUCAAAUUGCGGGAAAGGGGUCAACAGCCGUUCAGUACCAAGUCUCAGGGGAAACUUUGAGAUGGCCUUGCAAAGGGUAUGGUAAUAAGCUGACGGACAUGGUCCUAACCACGCAGCCAAGUCCUAAGUCAACAGAUCUUCUGUUGAUAUGGAUGCAGUUCACAGACUAAAUGUCGGUCGGGGAAGAUGUAUUCUUCUCAUAAGAUAUAGUCGGACCUCUCCUUAAUGGGAGCUAGCGGAUGAAGUGAUGCAACACUGGAGCCGCUGGGAACUAAUUUGUAUGCGAAAGUAUAUUGAUUAGUUUUGGAGUACUCGUGGUCG
How it was run: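 Colonies from six replicate transformations of E. coli BL21(DE3) were pooled and amplicon-sequenced on an Illumina HiSeq 2500. The library placed an intron with all eight P1ex-region nucleotides randomised inside the knt kanamycin-resistance gene on pET-22b(+), and cells grew overnight at 37°C or 30°C on LB agar with or without 25 μg/mL kanamycin (plus 100 μg/mL carbenicillin, 50 μM IPTG, 0.2% rhamnose). Fitness is the DiMSum error-weighted combination of wild-type-normalised replicate fold changes, kanamycin versus none.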

| Sequence | self-splicing fitness (ln) (30 °C) | self-splicing fitness (ln) (37 °C) |
| --- | --- | --- |
| ACCGAGCAAUAUUACGCUCC | -2.85 ± 0.39 | -1.79 ± 0.44 |
| CCGAAGCAAUAUUACGGCGA | -2.69 ± 0.3 | -2.53 ± 0.32 |
| AGGUAGCAAUAUUACGUGUG | -2.883 ± 0.016 | -1.88 ± 0.033 |
| GUCCAGCAAUAUUACGCUAU | -0.823 ± 0.055 | -0.104 ± 0.071 |
| UGUGAGCAAUAUUACGGAUG | -3.1 ± 0.17 | -1.52 ± 0.23 |
| UAGCAGCAAUAUUACGAAGU | -1.64 ± 0.13 | -1.59 ± 0.3 |
| UUGGAGCAAUAUUACGCGUU | -2.97 ± 0.47 | -2.47 ± 0.34 |
| GGAAAGCAAUAUUACGUGCC | -1.94 ± 0.19 | -2.01 ± 0.25 |
| AUCUAGCAAUAUUACGGGCC | -3.15 ± 0.23 | -2.18 ± 0.22 |
| UACUAGCAAUAUUACGUACC | -2.24 ± 0.17 | -1.72 ± 0.23 |
| GGGUAGCAAUAUUACGGGGU | -3.33 ± 0.32 | -3.06 ± 0.47 |
| GGCUAGCAAUAUUACGCGGU | -2.92 ± 0.38 | -3.63 ± 0.24 |
| UAUGAGCAAUAUUACGGACG | -2.79 ± 0.25 | -1.19 ± 0.23 |
| GGUAAGCAAUAUUACGGUUG | -3.76 ± 0.39 |  |
| AACUAGCAAUAUUACGCUAC | -3.46 ± 0.22 | -1.34 ± 0.14 |
| UGGAAGCAAUAUUACGAAUA | 0.136 ± 0.41 | -0.685 ± 0.28 |
| AGUUAGCAAUAUUACGGACG | -0.568 ± 0.16 | 0.616 ± 0.18 |

| Sequence | self-splicing fitness (ln) (30 °C) | self-splicing fitness (ln) (37 °C) |
| --- | --- | --- |
| GUGUAGCAAUAUUACGCGAG | -3.67 ± 0.32 | -0.997 ± 0.17 |
| UCUGAGCAAUAUUACGCCAU |  | -2.32 ± 0.31 |
| AUGGAGCAAUAUUACGGUCC | -3 ± 0.32 | -0.466 ± 0.31 |
| CCCGAGCAAUAUUACGGAAC | -2.51 ± 0.31 | -2.57 ± 0.34 |
| AUCGAGCAAUAUUACGAGAA |  | -2.44 ± 0.34 |
| CGCAAGCAAUAUUACGUGCG | -2.81 ± 0.26 | -2.23 ± 0.2 |
| CUUAAGCAAUAUUACGCUAG | -3.35 ± 0.25 | -0.439 ± 0.19 |
| AUGCAGCAAUAUUACGGGUU | -1.98 ± 0.075 | -1.29 ± 0.096 |
| UGCGAGCAAUAUUACGUACA | -2.18 ± 0.2 | 0.427 ± 0.21 |
| ACGUAGCAAUAUUACGUGUG | -3.26 ± 0.14 | -3.01 ± 0.16 |
| GCUAAGCAAUAUUACGAUGC | -3.28 ± 0.19 | -2.18 ± 0.18 |
| UGUUAGCAAUAUUACGCAAU | -4.18 ± 0.42 | -2.67 ± 0.27 |
| UUCUAGCAAUAUUACGGCAA | 0.293 ± 0.1 | 0.334 ± 0.11 |
| AGUUAGCAAUAUUACGUUAC | -3.26 ± 0.3 | -2.69 ± 0.33 |
| CCGGAGCAAUAUUACGGCCG | -2.44 ± 0.26 | -0.644 ± 0.21 |
| AACAAGCAAUAUUACGUGGA | -2.59 ± 0.11 | -1.51 ± 0.094 |
| UCUCAGCAAUAUUACGGCAU | -2.27 ± 0.11 | -2.4 ± 0.16 |
